B1: Bromodomain adjacent to zinc finger domain protein 2B, residues 1927 to 1982; numbered along this chain, Q9UIF8 (parent)
chain: KSIMKVYCQICRKGDNEELLLLCDGCDKGCHTYCHRPKITTIPDGDWFCPACIAKA

± gives the uncertainty stated by the source.

This series covers variants of B1. The experiment in a line: abundance fitness (aPCA) (normalised: wild type 0, dead -1); higher = more abundant; growth selection in yeast, the domain comes from the species named. To be noted: Homo sapiens.
In the case of KSIMKHYCQICRKGDNEELLLLCDGCDKGCHTYCHRPKITTIPDGDWFCPACIAKA [V6H], the abundance fitness is -0.036 ± 0.2.

In the case of KSIMKDYCQICRKGDNEELLLLCDGCDKGCHTYCHRPKITTIPDGDWFCPACIAKA [V6D], the abundance fitness is -0.007 ± 0.21.

On to KSIMKEYCQICRKGDNEELLLLCDGCDKGCHTYCHRPKITTIPDGDWFCPACIAKA [V6E], for which the abundance fitness is -0.092 ± 0.12.

As for KSIMKYYCQICRKGDNEELLLLCDGCDKGCHTYCHRPKITTIPDGDWFCPACIAKA [V6Y], the abundance fitness was determined as 0.171 ± 0.2.

Turning to KSIMKPYCQICRKGDNEELLLLCDGCDKGCHTYCHRPKITTIPDGDWFCPACIAKA [V6P], the abundance fitness was -0.143 ± 0.11.

For KSIMKTYCQICRKGDNEELLLLCDGCDKGCHTYCHRPKITTIPDGDWFCPACIAKA [V6T], the abundance fitness was -0.028 ± 0.098.

For the variant KSIMKKYCQICRKGDNEELLLLCDGCDKGCHTYCHRPKITTIPDGDWFCPACIAKA [V6K], the abundance fitness turned out to be 0.117 ± 0.16.

KSIMKQYCQICRKGDNEELLLLCDGCDKGCHTYCHRPKITTIPDGDWFCPACIAKA [V6Q]: the abundance fitness is -0.043 ± 0.11.

Turning to KSIMKLYCQICRKGDNEELLLLCDGCDKGCHTYCHRPKITTIPDGDWFCPACIAKA [V6L], the abundance fitness was -0.076 ± 0.077.

In the case of KSIMKCYCQICRKGDNEELLLLCDGCDKGCHTYCHRPKITTIPDGDWFCPACIAKA [V6C], the abundance fitness is -0.208 ± 0.13.

For KSIMKRYCQICRKGDNEELLLLCDGCDKGCHTYCHRPKITTIPDGDWFCPACIAKA [V6R], the abundance fitness came out at 0.036 ± 0.064.

For KSIMKNYCQICRKGDNEELLLLCDGCDKGCHTYCHRPKITTIPDGDWFCPACIAKA [V6N], the abundance fitness was -0.124 ± 0.27.

Consider KSIMKIYCQICRKGDNEELLLLCDGCDKGCHTYCHRPKITTIPDGDWFCPACIAKA [V6I], for which the abundance fitness was -0.068 ± 0.13.

On to KSIMKMYCQICRKGDNEELLLLCDGCDKGCHTYCHRPKITTIPDGDWFCPACIAKA [V6M], for which the abundance fitness is -0.064 ± 0.11.

In the case of KGIMKVYCQICRKGDNEELLLLCDGCDKGCHTYCHRPKITTIPDGDWFCPACIAKA [S2G], the abundance fitness was 0.065 ± 0.097.

On to KHIMKVYCQICRKGDNEELLLLCDGCDKGCHTYCHRPKITTIPDGDWFCPACIAKA [S2H], for which the abundance fitness came to 0.085 ± 0.25.

Take KVIMKVYCQICRKGDNEELLLLCDGCDKGCHTYCHRPKITTIPDGDWFCPACIAKA [S2V]: the abundance fitness is -0.156 ± 0.14.

As to KCIMKVYCQICRKGDNEELLLLCDGCDKGCHTYCHRPKITTIPDGDWFCPACIAKA [S2C], the abundance fitness is -0.181 ± 0.14.

For the variant KMIMKVYCQICRKGDNEELLLLCDGCDKGCHTYCHRPKITTIPDGDWFCPACIAKA [S2M], the abundance fitness is -0.23 ± 0.21.

For KWIMKVYCQICRKGDNEELLLLCDGCDKGCHTYCHRPKITTIPDGDWFCPACIAKA [S2W], the abundance fitness was -0.379 ± 0.14.

As for KDIMKVYCQICRKGDNEELLLLCDGCDKGCHTYCHRPKITTIPDGDWFCPACIAKA [S2D], the abundance fitness was 0.061 ± 0.16.

In the case of KEIMKVYCQICRKGDNEELLLLCDGCDKGCHTYCHRPKITTIPDGDWFCPACIAKA [S2E], the abundance fitness was 0.034 ± 0.24.

KNIMKVYCQICRKGDNEELLLLCDGCDKGCHTYCHRPKITTIPDGDWFCPACIAKA [S2N]: the abundance fitness was -0.506 ± 0.32.

Take KYIMKVYCQICRKGDNEELLLLCDGCDKGCHTYCHRPKITTIPDGDWFCPACIAKA [S2Y]: the abundance fitness is -0.558 ± 0.4.

As to KIIMKVYCQICRKGDNEELLLLCDGCDKGCHTYCHRPKITTIPDGDWFCPACIAKA [S2I], the abundance fitness turned out to be 0.051 ± 0.27.

Regarding KRIMKVYCQICRKGDNEELLLLCDGCDKGCHTYCHRPKITTIPDGDWFCPACIAKA [S2R], the abundance fitness was -0.077 ± 0.091.

Take KKIMKVYCQICRKGDNEELLLLCDGCDKGCHTYCHRPKITTIPDGDWFCPACIAKA [S2K]: the abundance fitness is -0.1 ± 0.14.

Consider KFIMKVYCQICRKGDNEELLLLCDGCDKGCHTYCHRPKITTIPDGDWFCPACIAKA [S2F], for which the abundance fitness is -0.155 ± 0.22.

On to KQIMKVYCQICRKGDNEELLLLCDGCDKGCHTYCHRPKITTIPDGDWFCPACIAKA [S2Q], for which the abundance fitness is -0.073 ± 0.23.

For the variant KAIMKVYCQICRKGDNEELLLLCDGCDKGCHTYCHRPKITTIPDGDWFCPACIAKA [S2A], the abundance fitness is -0.084 ± 0.1.

KPIMKVYCQICRKGDNEELLLLCDGCDKGCHTYCHRPKITTIPDGDWFCPACIAKA [S2P]: the abundance fitness was -0.243 ± 0.15.

With KTIMKVYCQICRKGDNEELLLLCDGCDKGCHTYCHRPKITTIPDGDWFCPACIAKA [S2T], the abundance fitness came to 0.019 ± 0.2.

KSIPKVYCQICRKGDNEELLLLCDGCDKGCHTYCHRPKITTIPDGDWFCPACIAKA [M4P]: the abundance fitness is -0.183 ± 0.13.

For KSIQKVYCQICRKGDNEELLLLCDGCDKGCHTYCHRPKITTIPDGDWFCPACIAKA [M4Q], the abundance fitness is -0.065 ± 0.12.

Regarding KSIAKVYCQICRKGDNEELLLLCDGCDKGCHTYCHRPKITTIPDGDWFCPACIAKA [M4A], the abundance fitness was -0.316 ± 0.086.

Take KSINKVYCQICRKGDNEELLLLCDGCDKGCHTYCHRPKITTIPDGDWFCPACIAKA [M4N]: the abundance fitness was -0.169 ± 0.16.

In the case of KSIIKVYCQICRKGDNEELLLLCDGCDKGCHTYCHRPKITTIPDGDWFCPACIAKA [M4I], the abundance fitness was -0.068 ± 0.12.

Turning to KSIRKVYCQICRKGDNEELLLLCDGCDKGCHTYCHRPKITTIPDGDWFCPACIAKA [M4R], the abundance fitness was -0.157 ± 0.08.

Turning to KSIEKVYCQICRKGDNEELLLLCDGCDKGCHTYCHRPKITTIPDGDWFCPACIAKA [M4E], the abundance fitness is -0.184 ± 0.12.

As for KSIVKVYCQICRKGDNEELLLLCDGCDKGCHTYCHRPKITTIPDGDWFCPACIAKA [M4V], the abundance fitness is -0.138 ± 0.081.

For KSIGKVYCQICRKGDNEELLLLCDGCDKGCHTYCHRPKITTIPDGDWFCPACIAKA [M4G], the abundance fitness was -0.325 ± 0.071.

As to KSIKKVYCQICRKGDNEELLLLCDGCDKGCHTYCHRPKITTIPDGDWFCPACIAKA [M4K], the abundance fitness was -0.127 ± 0.17.

In the case of KSICKVYCQICRKGDNEELLLLCDGCDKGCHTYCHRPKITTIPDGDWFCPACIAKA [M4C], the abundance fitness was -0.054 ± 0.12.

As for KSILKVYCQICRKGDNEELLLLCDGCDKGCHTYCHRPKITTIPDGDWFCPACIAKA [M4L], the abundance fitness is -0.145 ± 0.082.

Consider KSIHKVYCQICRKGDNEELLLLCDGCDKGCHTYCHRPKITTIPDGDWFCPACIAKA [M4H], for which the abundance fitness is -0.009 ± 0.22.

Turning to KSITKVYCQICRKGDNEELLLLCDGCDKGCHTYCHRPKITTIPDGDWFCPACIAKA [M4T], the abundance fitness was -0.06 ± 0.11.

Regarding KSISKVYCQICRKGDNEELLLLCDGCDKGCHTYCHRPKITTIPDGDWFCPACIAKA [M4S], the abundance fitness was -0.161 ± 0.091.

The values are drawn from the Human Domainome abundance scans (Beltran et al. 2025).
